Laboratory results as given in IntAct's records for PubMed 18566586.

B1: RAC-alpha serine/threonine-protein kinase (Mus musculus), P31750 (parent)
chain: MNDVAIVKEGWLHKRGEYIKTWRPRYFLLKNDGTFIGYKERPQDVDQRESPLNNFSVAQCQLMKTERPRPNTFIIRCLQWTTVIERTFHVETPEEREEWATAIQTVADGLKRQEEETMDFRSGSPSDNSGAEEMEVSLAKPKHRVTMNEFEYLKLLGKGTFGKVILVKEKATGRYYAMKILKKEVIVAKDEVAHTLTENRVLQNSRHPFLTALKYSFQTHDRLCFVMEYANGGELFFHLSRERVFSEDRARFYGAEIVSALDYLHSEKNVVYRDLKLENLMLDKDGHIKITDFGLCKEGIKDGATMKTFCGTPEYLAPEVLEDNDYGRAVDWWGLGVVMYEMMCGRLPFYNQDHEKLFELILMEEIRFPRTLGPEAKSLLSGLLKKDPTQRLGGGSEDAKEIMQHRFFANIVWQDVYEKKLSPPFKPQVTSETDTRYFDEEFTAQMITITPPDQDDSMECVDSERRPHFPQFSYSASGTA

Variants of: B1
Conditions: with hs90a_mouse Hsp90aa1, P07901

effect of a mutation on the interaction | Variant
increasing interaction | MNDVAIVKEGWLHKRGEYIKTWRPRYFLLKNDGTFIGYKERPQDVDQRESPLNNFSVAQCQLMKTERPRPNTFIIRCLQWTTVIERTFHVETPEEREEWATAIQTVADGLKRQEEETMDFRSGSPSDNSGAEEMEVSLAKPKHRVTMNEFEYLKLLGKGTFGKVILVKEKATGRYYAMKILKKEVIVAKDEVAHTLTENRVLQNSRHPFLTALKYSFQTHDMLCFVMEYANGGELFFHLSRERVFSEDRARFYGAEIVSALDYLHSEKNVVYRDLKLENLMLDKDGHIKITDFGLCKEGIKDGATMKTFCGTPEYLAPEVLEDNDYGRAVDWWGLGVVMYEMMCGRLPFYNQDHEKLFELILMEEIRFPRTLGPEAKSLLSGLLKKDPTQRLGGGSEDAKEIMQHRFFANIVWQDVYEKKLSPPFKPQVTSETDTRYFDEEFTAQMITITPPDQDDSMECVDSERRPHFPQFSYSASGTA [R222M]
increasing interaction | MNDVAIVKEGWLHKRGEYIKTWRPRYFLLKNDGTFIGYKERPQDVDQRESPLNNFSVAQCQLMKTERPRPNTFIIRCLQWTTVIERTFHVETPEEREEWATAIQTVADGLKRQEEETMDFRSGSPSDNSGAEEMEVSLAKPKHRVTMNEFEYLKLLGKGTFGKVILVKEKATGRYYAMKILMKEVIVAKDEVAHTLTENRVLQNSRHPFLTALKYSFQTHDRLCFVMEYANGGELFFHLSRERVFSEDRARFYGAEIVSALDYLHSEKNVVYRDLKLENLMLDKDGHIKITDFGLCKEGIKDGATMKTFCGTPEYLAPEVLEDNDYGRAVDWWGLGVVMYEMMCGRLPFYNQDHEKLFELILMEEIRFPRTLGPEAKSLLSGLLKKDPTQRLGGGSEDAKEIMQHRFFANIVWQDVYEKKLSPPFKPQVTSETDTRYFDEEFTAQMITITPPDQDDSMECVDSERRPHFPQFSYSASGTA [K182M]

Variants of: B1
Conditions: with hs90a_mouse Hsp90aa1, P07901
Remark: another data set of the same source

effect of a mutation on the interaction | Variant
increasing interaction | MNDVAIVKEGWLHKRGEYIKTWRPRYFLLKNDGTFIGYKERPQDVDQRESPLNNFSVAQCQLMKTERPRPNTFIIRCLQWTTVIERTFHVETPEEREEWATAIQTVADGLKRQEEETMDFRSGSPSDNSGAEEMEVSLAKPKHRVTMNEFEYLKLLGKGTFGKVILVKEKATGRYYAMKILKKEVIVAKDEVAHTLTENRVLQNSRHPFLTALKYSFQTHDRLCFVMEYANGGELFFHLSRERVFSEDRARFYGAEIVSALDYLHSEKNVVYRDLKLENLMLDKDGHIKITDFGLCKEGIKDGATMKTFCGTPEYLAPEVLEDNDYGRAVDWWGLGVVMYEMMCGRLPFYNQDHEKLFELILMEEIRFPRTLGPEAKSLLSGLLKKDPTQRLGGGSEDAKEIMQHRFFANIVWQDVYEKKLSPPFKPQVTSETDTRYFDEEFAAQMITITPPDQDDSMECVDSERRPHFPQFSYSASGTA [T443A]

Variants of: B1
Conditions: with hs90a_mouse Hsp90aa1, P07901
Remark: another data set of the same source

effect of a mutation on the interaction | Variant
increasing interaction | MNDVAIVKEGWLHKRGEYIKTWRPRYFLLKNDGTFIGYKERPQDVDQRESPLNNFSVAQCQLMKTERPRPNTFIIRCLQWTTVIERTFHVETPEEREEWATAIQTVADGLKRQEEETMDFRSGSPSDNSGAEEMEVSLAKPKHRVTMNEFEYLKLLGKGTFGKVILVKEKATGRYYAMKILKKEVIVAKDEVAHTLTENRVLQNSRHPFLTALKYSFQTHDRLCFVMEYANGGELFFHLSRERVFSEDRARFYGAEIVSALDYLHSEKNVVYRDLKLENLMLDKDGHIKITDFGLCKEGIKDGATMKTFCGTPEYLAPEVLEDNDYGRAVDWWGLGVVMYEMMCGRLPFYNQDHEKLFELILMEEIRFPRTLGPEAKSLLSGLLKKDPTQRLGGGSEDAKEIMQHRFFANIVWQDVYEKKLSPPFKPQVTSETDTRYFDEEFTAQMITIAPPDQDDSMECVDSERRPHFPQFSYSASGTA [T450A]

Variants of: B1
Conditions: with hs90a_mouse Hsp90aa1, P07901
Remark: another data set of the same source

effect of a mutation on the interaction | Variant
increasing interaction | MNDVAIVKEGWLHKRGEYIKTWRPRYFLLKNDGTFIGYKERPQDVDQRESPLNNFSVAQCQLMKTERPRPNTFIIRCLQWTTVIERTFHVETPEEREEWATAIQTVADGLKRQEEETMDFRSGSPSDNSGAEEMEVSLAKPKHRVTMNEFEYLKLLGKGTFGMVILVKEKATGRYYAMKILKKEVIVAKDEVAHTLTENRVLQNSRHPFLTALKYSFQTHDRLCFVMEYANGGELFFHLSRERVFSEDRARFYGAEIVSALDYLHSEKNVVYRDLKLENLMLDKDGHIKITDFGLCKEGIKDGATMKTFCGTPEYLAPEVLEDNDYGRAVDWWGLGVVMYEMMCGRLPFYNQDHEKLFELILMEEIRFPRTLGPEAKSLLSGLLKKDPTQRLGGGSEDAKEIMQHRFFANIVWQDVYEKKLSPPFKPQVTSETDTRYFDEEFTAQMITITPPDQDDSMECVDSERRPHFPQFSYSASGTA [K163M]
